# In paper PMC6201861:
# Target: mAb-hERG1
# Test: SPR; Biacore T200; mAb-hERG1 bound to a Protein G pre-coated CM5 chip (7693 RU); S5-Pore applied at 10, 50, 100, 500 nM, single cycle kinetics; contact 30 s, dissociation 120 s, 30 ul/min
# mAb-hERG1, sequence (heavy, as listed by the source, chain 1 of 2): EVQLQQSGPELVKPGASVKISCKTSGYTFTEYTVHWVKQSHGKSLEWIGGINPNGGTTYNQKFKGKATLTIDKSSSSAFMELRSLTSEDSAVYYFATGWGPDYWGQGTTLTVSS
# mAb-hERG1, sequence (light, as listed by the source, chain 2 of 2): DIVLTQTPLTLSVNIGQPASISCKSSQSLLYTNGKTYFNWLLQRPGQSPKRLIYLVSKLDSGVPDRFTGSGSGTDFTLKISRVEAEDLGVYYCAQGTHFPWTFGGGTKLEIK
binder,measurement,value
EQPHMDSRIGWLHN [S5-Pore peptide],Kd,16.2 nM
same,koff,0.0258 s⁻¹
same,kon,1.6e+06 M⁻¹ s⁻¹
